Like-named read-outs stand apart in the source and are kept apart here.

For assay [1], the target named is T1, recombinant human GPC3 (R&D Systems #2119-GP-050/CF) (human, UniProt P51654 25-559).
T1 construct: also called Glypican-3; biotinylated human GPC3
Put plainly: ELISA, GPC3 coated, anti-NGAL-HRP detection. The text has this:
GPC3 was coated on a microtiter plate and the tested molecules were titrated. Bound molecules were detected via an HRP-labeled anti-human NGAL-specific antibody as described in Example 12. The data was fitted with a 1:1 binding model with EC50 value and the maximum signal as free parameters, and a slope that was fixed to unity.
A general note: An ELISA detects its analyte on a solid surface through an enzyme-linked reagent.

Assay [2] deals with T1, recombinant human GPC3 (R&D Systems …). Put plainly: SPR, biotinylated fusion captured on CAP chip, GPC3 as analyte (11-300 nM). On the procedure:
The data were double-referenced by subtraction of the corresponding signals measured for the control channel (loaded with Biotin CAPture reagent only) and by subtraction of buffer injections from the binding responses. Association rate constant kₐ and dissociation rate constant kd for the binding reaction were determined using Biacore T200 Evaluation Software V2.0 for data processing and kinetic fitting.

Assay [3] has as its target T2, recombinant human CD137-Fc fusion protein (#838-4B-100, R&D Systems) (human, UniProt Q07011 24-186).
T2 construct: also called Fc-fusion of human CD137; not shown: Fc part of the bought fusion protein, not described
Put plainly: SPR, CD137-Fc captured by anti-human Fc antibody on CM5 chip, 1:1 model. On the procedure:
Binding affinities of the CD137-binding lipocalin mutein and the bispecific polypeptides of SEQ ID NO: 46 and SEQ ID NO: 47 to recombinant human CD137-Fc fusion protein (#838-4B-100, R&D Systems) were determined by Surface Plasmon Resonance using a Biacore T200 instrument (GE Healthcare) in analogy to Example 6. Prior to the SPR affinity assay, a CM5 sensor chip was derivatized with an anti-human Fc antibody using the Human Antibody Capture Kit (GE Healthcare # BR-1008-39) according to the manufacturer's instructions.
Four different concentrations (1000 nM, 200 nM, 40 nM and 8 nM) of the bispecific polypeptides were prepared in running buffer (10 mM HEPES, 150 mM NaCl, 0.05% v/v Surfactant P20, 3 mM EDTA, pH 7.4 (GE Healthcare)) and applied to the chip surface. Applying a flow rate of 30 μL/min, the sample contact time was 180 s and dissociation time was 600 s. All measurements were performed at 25° C. […] Prior to the protein measurements three regeneration cycles were performed for conditioning purposes. Data were evaluated with Biacore T200 Evaluation software (V 2.0). Double referencing was used and the 1:1 Binding model was used to fit the raw data.
(In general: SPR reads the build-up and loss of mass on a sensor chip optically.)

The target of assay [4] is T1, recombinant human GPC3 (R&D Systems …). Put plainly: ELISA, GPC3 coated, anti-NGAL-HRP detection. An excerpt:
GPC3 was coated on a microtiter plate and the tested molecules were titrated. Bound molecules were detected via an HRP-labeled human NGAL-specific antibody as described in Example 14. The data was fitted with a 1:1 binding model with EC50 value and the maximum signal as free parameters, and a slope that was fixed to unity.
This is another data set of the same source.

Assay [5] has as its target T2, recombinant human CD137-Fc fusion …. Put plainly: dual-binding ELISA: CD137-Fc coated, fusion titrated, biotinylated GPC3 detected with Extravidin-HRP. On the procedure: FIG. 16: provides a representative experiment in which the ability of two bispecific fusion polypeptides of SEQ ID NO: 46 and SEQ ID NO: 47 to bind the targets, GPC3 and CD137, simultaneously was determined. Recombinant CD137-Fc fusion protein was coated on a microtiter plate, followed by a titration of the fusion protein. Subsequently, a constant concentration of biotinylated human GPC3 was added, which was detected via HRP-labeled extravidin as described in Example 16. The data was fitted with a 1:1 binding model with EC50 value and the maximum signal as free parameters, and a slope that was fixed to unity.
The result of the experiment is depicted in FIG. 16, together with the fit curves resulting from a 1:1 binding sigmoidal fit, where the EC50 value and the maximum signal were free parameters, and the slope was fixed to unity.

For assay [6] the target is unchanged. Put plainly: ELISA, CD137-Fc coated, as described in Example 3.
Assay [7] shares this target. Put plainly: SPR, biotinylated CD137-Fc captured on CAP chip, 1:1 model, apparent affinity. The method, then:
Briefly, biotinylated CD137-Fc was captured on a sensor chip CAP and four dilutions (20, 5, 1.3 and 0.3 nM) of each tested agent (fusion protein or SEQ ID NOs: 34 and 35) were prepared in running buffer and applied to the chip surface. Applying a flow rate of 30 μL/min, the sample contact time was 180 s and dissociation time was 600 s. All measurements were otherwise performed and analyzed as described in Example 5.

For assay [8] the target is unchanged. Put plainly: ELISA, CD137-Fc coated, anti-human IgG-HRP detection. On the procedure:
The antibody of SEQ ID NOs: 34 and 35 served as the positive control. The target was dissolved in PBS (1 μg/mL) and coated overnight on microtiter plates at 4° C. The plate was washed after each incubation step with 100 μL PBS-T five times. The plates were blocked with 2% BSA (w/v) in PBS-T for 1 h at room temperature and subsequently washed. Different concentrations of the CD137-specific antibody or the fusion polypeptides were added to the wells and incubated for 1 h at room temperature, followed by a wash step. Bound fusion protein was detected after incubation for 1 h at room temperature with 1:5000 diluted mouse anti-human IgG Fab antibody conjugated to HRP (Jackson Laboratories) in PBS-TB. After an additional wash step, fluorogenic HRP substrate (QuantaBlu, Thermo) was added to each well and the fluorescence intensity was detected using a fluorescence microplate reader.
The result of the experiment is depicted in FIG. 3, together with the fit curves resulting from a 1:1 binding sigmoidal fit, where the EC50 value and the maximum signal were free parameters, and the slope was fixed to unity.

T1 sequence (P51654 25-559 limits assumed): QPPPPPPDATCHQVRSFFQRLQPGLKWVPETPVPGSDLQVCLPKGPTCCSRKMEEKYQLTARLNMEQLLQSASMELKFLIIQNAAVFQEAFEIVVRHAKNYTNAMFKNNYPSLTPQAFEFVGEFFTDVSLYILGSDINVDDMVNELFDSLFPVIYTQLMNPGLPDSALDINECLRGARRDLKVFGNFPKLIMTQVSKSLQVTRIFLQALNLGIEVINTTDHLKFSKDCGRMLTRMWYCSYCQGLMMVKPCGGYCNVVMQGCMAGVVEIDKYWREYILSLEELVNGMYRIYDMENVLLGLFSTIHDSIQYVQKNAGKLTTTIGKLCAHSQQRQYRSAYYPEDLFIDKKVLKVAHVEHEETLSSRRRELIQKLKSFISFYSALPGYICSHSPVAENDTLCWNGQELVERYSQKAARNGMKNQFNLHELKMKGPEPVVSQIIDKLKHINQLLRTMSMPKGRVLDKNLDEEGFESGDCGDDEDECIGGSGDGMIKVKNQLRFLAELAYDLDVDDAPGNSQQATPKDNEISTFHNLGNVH

B1: fusion polypeptide of SEQ ID NOs: 53 and 54 (bispecific antibody, human IgG2, lambda)
chain 1: EVQLVQSGAEVKKPGESLRISCKGSGYSFSTYWISWVRQMPGKGLEWMGKIYPGDSYTNYSPSFQGQVTISADKSISTAYLQWSSLKASDTAMYYCARGYGIFDYWGQGTLVTVSSASTKGPSVFPLAPCSRSTSESTAALGCLVKDYFPEPVTVSWNSGALTSGVHTFPAVLQSSGLYSLSSVVTVPSSNFGTQTYTCNVDHKPSNTKVDKTVERKCCVECPPCPAPPVAGPSVFLFPPKPKDTLMISRTPEVTCVVVDVSHEDPEVQFNWYVDGVEVHNAKTKPREEQFNSTFRVVSVLTVVHQDWLNGKEYKCKVSNKGLPAPIEKTISKTKGQPREPQVYTLPPSREEMTKNQVSLTCLVKGFYPSDIAVEWESNGQPENNYKTTPPMLDSDGSFFLYSKLTVDKSRWQQGNVFSCSVMHEALHNHYTQKSLSLSPGKGGGGSGGGGSGGGGSQDSTSDLIPAPPLSKVPLQQNFQDNQFQGKWYVVGRAGNVGLREDKDPPKMWATIYELKEDKSYDVTNVRFARKKCTYSIGTFVPGSQPGEFTLGQIKSEPGGTANLVRVVSTNYNQHAMVFFKEVYQNREIFFIILYGRTKELTSELKENFIRFSKSLGLPENHIVFPVPIDQCIDG
chain 2: SYELTQPPSVSVSPGQTASITCSGDNIGDQYAHWYQQKPGQSPVLVIYQDKNRPSGIPERFSGSNSGNTATLTISGTQAMDEADYYCATYTGFGSLAVFGGGTKLTVLGQPKAAPSVTLFPPSSEELQANKATLVCLISDFYPGAVTVAWKADSSPVKAGVETTTPSKQSNNKYAASSYLSLTPEQWKSHRSYSCQVTHEGSTVEKTVAPTECS
Broadly, the EC50 is the midpoint of the concentration-response curve. Consider B1, for which the EC50 in assay [1] is 0.62 nM.

B2: bispecific fusion polypeptide of SEQ ID NO: 46 (designed binder)
chain: QDSTSDLIPAPPLSKVPLQQNFQDNQFQGKWYVVGVAGNGMLREDKDPLKMRATIYELKEDKSYDVTSVAFRNKKCHYKIGTFVPGSQPGEFTLGQIKSGPGETSNLVRVVSTNYNQHAMVFFKEVRQNREWFFITLYGRTKELTSELKENFIRFSKSLGLPENHIVFPVPIDQCIDGGGGGSGGGGSQDSTSDLIPAPPLSKVPLQQNFQDNQFHGKWYVVGQAGNIRLREDKDPIKMMATIYELKEDKSYDVTMVKFDDKKCMYDIWTFVPGSQPGEFTLGKIKSFPGHTSSLVRVVSTNYNQHAMVFFKFVFQNREEFYITLYGRTKELTSELKENFIRFSKSLGLPENHIVFPVPIDQCIDG
Turning to B2, the Kd in assay [2] was found to be 4.3 nM; in assay [3] it was 0.0016 nM. In addition, the EC50 in assay [4] was determined as 0.14 nM; in assay [5] it was 7.3 nM; in assay [6] it was 0.2 nM.

B3: bispecific fusion polypeptide of SEQ ID NO: 47 (designed binder)
chain: QDSTSDLIPAPPLSKVPLQQNFQDNQFQGKWYVVGVAGNGMLREDKDPLKMRATIYELKEDKSYDVTSVAFRNKKCHYKIGTFVPGSQPGEFTLGQIKSGPGETSNLVRVVSTNYNQHAMVFFKEVRQNREWFFITLYGRTKELTSELKENFIRFSKSLGLPENHIVFPVPIDQCIDGGGGGSGGGGSQDSTSDLIPAPPLSKVPLQQNFQDNQFHGKWYVVGQAGNIRLREDKDPIKMMATIYELKEDKSYDVTMVKFDDKKCMYDIWTFVPGSQPGEFTLGKIKSFPGHTSSLVRVVSTNYNQHAMVFFKFVFQNREEFYITLYGRTKELTSELKENFIRFSKSLGLPENHIVFPVPIDQCIDGGGGGSGGGGSQDSTSDLIPAPPLSKVPLQQNFQDNQFHGKWYVVGQAGNIRLREDKDPIKMMATIYELKEDKSYDVTMVKFDDKKCMYDIWTFVPGSQPGEFTLGKIKSFPGHTSSLVRVVSTNYNQHAMVFFKFVFQNREEFYITLYGRTKELTSELKENFIRFSKSLGLPENHIVFPVPIDQCIDG
As for B3, the values for the Kd in assay [2] and in assay [3] were 3.5 nM and 0.0006 nM, respectively. Also, the EC50 in assay [4] stood at 0.16 nM; in assay [5], 7.47 nM; in assay [6], 0.26 nM.

B4: CD137-specific antibody of SEQ ID NOs: 34 and 35 (antibody, human IgG4 S228P, kappa, V domains shown)
VH: QVQLQQWGAGLLKPSETLSLTCAVYGGSFSGYYWSWIRQSPEKGLEWIGEINHGGYVTYNPSLESRVTISVDTSKNQFSLKLSSVTAADTAVYYCARDYGPGNYDWYFDLWGRGTLVTVSS
VL: EIVLTQSPATLSLSPGERATLSCRASQSVSSYLAWYQQKPGQAPRLLIYDASNRATGIPARFSGSGSGTDFTLTISSLEPEDFAVYYCQQRSNWPPALTFGGGTKVEIKR
notes: also called antibody 20H4.9
Turning to B4, in assay [7], the Kd is 0.092 nM. For the same molecule, the EC50 in assay [8] worked out at 1.5 nM.

B5: lipocalin mutein of SEQ ID NO: 8 (designed binder)
chain: QDSTSDLIPAPPLSKVPLQQNFQDNQFQGKWYVVGVAGNGMLREDKDPLKMRATIYELKEDKSYDVTSVAFRNKKCHYKIGTFVPGSQPGEFTLGQIKSGPGETSNLVRVVSTNYNQHAMVFFKEVRQNREWFFITLYGRTKELTSELKENFIRFSKSLGLPENHIVFPVPIDQCIDG
As for B5, the 50% effective concentration (EC50) in assay [4] turned out to be 0.24 nM.

For the origin of these results see US20180148485A1 (Pieris, published 2018).
